This note sets out measurements from PMC8193172.

As a reminder, the stoichiometry N is a count of units in the complex or per binding partner.

The assay deals with Hydrophobin-BMP2 fusion protein (UniProt P12643). Put plainly: SDS-PAGE and Western blot. Background: Immunoblotting shows a protein as a band on a membrane.

The substance “Hydrophobin-BMP2 fusion protein (from UniProt P12643 283-396)” returned a stoichiometry N of 2.
